Experimental findings from patent CN117683122A (SHENZHEN BAY LABORATORY; UNIV TSINGHUA, dated 2024) are described below.

Substitutions are numbered along the chain they refer to. Where only a bound is given, the exact number is not on record here.

The target of this assay is 重组猴痘病毒表面蛋白B6R-His (monkeypox virus, UniProt P0DTN2 20-279).

B1: 抗体B010 (antibody, V domains shown)
VH: QVQLLDSGGGLVQPGGSLRLSCAASGFTFSSYAMHWVRQAPGKGLEWVAVISYDGSNKYYADSVKGRFTISRDNSKNTLYLQMNSLRAEDTAVYYCAQGWFDYWGQGTTVTVSS
VL: NIQMTQSPSTLSASVGDRVTITCRASQSIGPWLAWYQQKPGKAPKLLIYKASSLESGVPSRFSGSGSGTEFTLTISSLQPEDFATYHCQQYKSYPYSFGQGTKVDIKR
In the case of B1, the Kd (usually the free concentration of one partner at which half of the binding sites on the other are occupied at equilibrium, for simple one-to-one binding) was less than 1 nM.

B2: 抗体B161 (antibody, V domains shown)
VH: QVQLLESGGGLVKPGGSLRLSCAASGFTFSSYSMSWVRQAPGKGLEWVSSISGGSDYIYYADPVRGRFTISRDNAKNSVYLQMNSLRAEDTAVYYCGRGITGIFNWGQGTPVTVSS
VL: DIQLTQSPSSLSASVGDRVTITCRASQSINNYLNWYQQKPGKAPKVLIYAASSLPRGVPSRFSGSGSGTDFTLTISSLQPEDFASYYCQQSYTSPLTFGQGTKVEVKR
In turn, B2 had a Kd of less than 1 nM.

B3: 抗体B019 (antibody, V domains shown)
VH: QVQLLESGGTLVQPGGSLRLSCAASGFSFRTHDMNWVRQAPGKGLEWVSHISSTGSTIYYADSVKGRFTISRDNAKNSLYLQMNSLRADDTAVYYCARDRFTIFGVGPPFYYMDVWGQGTLVTVSS
VL: DIQLTQSPSSLSASVGDRVTITCRASQGISSYLAWYQQKPGKAPKLLIYAASTLQSGVPSRFSGSGSGTDFTLTISSLQPEDFATYYCQQSYSTPRTFGQGTKVEIKR
B3 gave a Kd of less than 1 nM.

B4: 抗体B026 (antibody, V domains shown)
VH: EVQLLESGGGVVQPGNSLRLSCAASGFTFSSYNMNWVRQAPGKGLEWVSSISSRSSYIYYADSVKGRFTISRDNAKNTLYLQMSSLRSEDTAVYFCVRRNGAFDIWGQGTMVTVSS
VL: B3 VL with L4M, G28S, S30T, S31T, A34N, T53S, S93G, T94I
As for B4, the Kd is less than 1 nM.

B5: 抗体B089 (antibody, V domains shown)
VH: EVQLLESGGGVVQPGRSLRLSCAASGFTFSSYAMHWVRQAPGKGLEWVAVISYDGSNKYYADSVKGRFTISRDNSKNTLYLQMNSLRAEDTAVYYCARFSGAYSYGYGVYWGQGTPVTVSS
VL: DIQLTQSPSFLSASVGDNVTITCRASQGIASRLAWYQQKPGKAPNLLISSSSTLQSGVPSRFTGSGYGTEFTLTMNTLQPEDSATYYCQQLNSYPLTFGGGTKVEIKR
In turn, B5 yielded a Kd of less than 1 nM.

B6: 抗体B083 (antibody, V domains shown)
VH: EVQLLESGGGVVRPGGSLRLSCAASGFTFGDYGMSWVRQAPGKGLEWVSGINWNGGSTGYADSVKGRFTISRDNAKNSLYLQMNSLRVEDSGVYYCARYGRVPDNWGQGTMVTVSS
VL: NIQLTQSPSSLSASVGDRVTITCRASQGVNNWLAWYQQKPGKAPKLLIYAASTLESGVPSRFSGSGSATDFTLTINGLQPEDFATYYCQQAKRFPWTFGQGTKVEIKR
The molecule B6 displayed a Kd of less than 1 nM.
